According to the DeepSol protein solubility set:

Test: soluble on expression in E. coli; label from the status in PepcDB or PDB records

Sequence	soluble on expression in E. coli
MDTSSVGGLELTDQTPVLLGSTAMATSLTNVGNSFSGPANPLVSRSNKFQNSSVEDDDDVVFIEPVQPPPPSVPVVADQRTITFTSSKNEELQGNDSKITPSSKELASQKGSVSETIVIDDEEDMETNQGQEKNSSNFIERRPPETKNRTNDVDFSTSSFSRSKTKTGVGPFNPGRMNVAGDVFQNGESATHHNPDSWISQSASFPRNQKQPGVDSLSPVASLPKQIFQPSVQQQPTKPVKVTCANCKKPLQKGQTAYQRKGSAHLFCSTTCLSSFSHKPAPKKLCVMCKKDITTMKGTIVAQVDSSESFQEFCSTSCLSLYEDKQNPTKGALNKSRCTICGKLTEIRHEVSFKNMTHKLCSDHCFNRYRMANGLIMNCCEQCGEYLPSKGAGNNVLVIDGQQKRFCCQSCVSEYKQVGSHPSFLKEVRDHMQDSFLMQPEKYGKLTTCTGCRTQCRFFDMTQCIGPNGYMEPYCSTACMNSHKTKYAKSQSLGIICHFCKRNSLPQYQATMPDGKLYNFCNSSCVAKFQALSMQSSPNGQFVAPSDIQLKCNYCKNSFCSKPEILEWENKVHQFCSKTCSDDYKKLHCIVTYCEYCQEEKTLHETVNFSGVKRPFCSEGCKLLYKQDFARRLGLRCVTCNYCSQLCKKGATKELDGVVRDFCSEDCCKKFQDWYYKAARCDCCKSQGTLKERVQWRGEMKHFCDQHCLLRFYCQQNEPNMTTQKGPENLHYDQGCQTSRTKMTGSAPPPSPTPNKEMKNKAVLCKPLTMTKATYCKPHMQTKSCQTDDTWRTEYVPVPIPVPVYIPVPMHMYSQNIPVPTTVPVPVPVPVFLPAPLDSSEKIPAAIEELKSKVSSDALDTELLTMTDMMSEDEGKTETTNINSVIIETDIIGSDLLKNSDPETQSSMPDVPYEPDLDIEIDFPRAAEELDMENEFLLPPVFGEEYEEQPRPRSKKKGAKRKAVSGYQSHDDSSDNSECSFPFKYTYGVNAWKHWVKTRQLDEDLLVLDELKSSKSVKLKEDLLSHTTAELNYGLAHFVNEIRRPNGENYAPDSIYYLCLGIQEYLCGSNRKDNIFIDPGYQTFEQELNKILRSWQPSILPDGSIFSRVEEDYLWRIKQLGSHSPVALLNTLFYFNTKYFGLKTVEQHLRLSFGTVFRHWKKNPLTMENKACLRYQVSSLCGTDNEDKITTGKRKHEDDEPVFEQIENTANPSRCPVKMFECYLSKSPQNLNQRMDVFYLQPECSSSTDSPVWYTSTSLDRNTLENMLVRVLLVKDIYDKDNYELDEDTD	soluble
MSPQKRVKNVQAQNRTSQGSSSFQTTLSAWKVKQDPSNSKNISKHGQNNPVGDYEHADDQAEEDALQMAVGYFEKGPIKASQNKDKTLEKHLKTVENVAWKNGLASEEIDILLNIALSGKFGNAVNTRILKCMIPATVISEDSVVKAVSWLCVGKCSGSTKVLFYRWLVAMFDFIDRKEQINLLYGFFFASLQDDALCPYVCHLLYLLTKKENVKPFRVRKLLDLQAKMGMQPHLQALLSLYKFFAPALISVSLPVRKKIYLQNSENLWKTALLAVKQRNRGPSPEPLKLMLGPANVRPLKRKWNSLSVIPVLNSSSYTKECGKKEMSLSDCLNRSGSFPLEQLQSFPQLLQNIHCLELPSQMGSVLNNSLLLHYINCVRDEPVLLRFHYWLSQTLQEECIWYKVNNYEHGKEFTNFLDTIIRAECFLQEGYYSCEAFLYKSLPLWDGLSCRSQFLQLVSWIPFSSFSEVKPLLFDHLAQLFFTSTIYFKCSVLQSLKELLQNWLLWLSMDIHMKPVTNSPLETTLGGSMNCVSKLIHYVGWLSTTAMRLESNNTFLLHFILDFYEKVCDIYINYDLPLVVLFPPGIFYSALLSLDTSILNQLCFIMHRYRKNLTAAKKNELVQKTKSEFNFSSKTYQEFNYYLTSMVGCLWTSKPFAKGIYIDPEILEKTGVAEYKNSLNVVHHPSFLSYAVSFLLQESPEERTVNVSSIRGKKWSWYLDYLFSQGLQGLKLFIRSSVHHSSIPRAEGINCNNQY	soluble
MRSEAKNQKPTAYPMKGIDDLPLHEIIEPALDITSPQVACVGIGVRAVCNYDCVYCYAGHSDKRGDMSVEQYFDVMEQAAELGVKTIIMTGAGGKSEPGLFKGLLPILERASSLGMSTAMFTNGSQFGDDKVARIHNLSAVELAHKIRELKVSLFIACETLEPDLYSNITKKPIAPFQTGLINLIAAGFIGTPGEPTSVTISSVIMRQNFEELPVLQKFAHNNGWQYICKFPTLVGSALDHPELFFSPEEAAERHSIVAELRDKPETLTVTHSGAEYCLVNQVGMSFDNLGTPLNCLSGCEITSRKDMNLKSMRLADIVLLKKHLAHQGIGNCPKKAVFYDFKQPKLEAAAFHGLS	not soluble
